Where a chain is given by its changes, count along the chain named. Numbers in names are those of the source.
Target: T1, recombinant Factor VIII (CSL627, rVIII-SingleChain) (Homo sapiens (Human), UniProt P00451 20-2351)
T1 construct: also called FVIII
T1 sequence: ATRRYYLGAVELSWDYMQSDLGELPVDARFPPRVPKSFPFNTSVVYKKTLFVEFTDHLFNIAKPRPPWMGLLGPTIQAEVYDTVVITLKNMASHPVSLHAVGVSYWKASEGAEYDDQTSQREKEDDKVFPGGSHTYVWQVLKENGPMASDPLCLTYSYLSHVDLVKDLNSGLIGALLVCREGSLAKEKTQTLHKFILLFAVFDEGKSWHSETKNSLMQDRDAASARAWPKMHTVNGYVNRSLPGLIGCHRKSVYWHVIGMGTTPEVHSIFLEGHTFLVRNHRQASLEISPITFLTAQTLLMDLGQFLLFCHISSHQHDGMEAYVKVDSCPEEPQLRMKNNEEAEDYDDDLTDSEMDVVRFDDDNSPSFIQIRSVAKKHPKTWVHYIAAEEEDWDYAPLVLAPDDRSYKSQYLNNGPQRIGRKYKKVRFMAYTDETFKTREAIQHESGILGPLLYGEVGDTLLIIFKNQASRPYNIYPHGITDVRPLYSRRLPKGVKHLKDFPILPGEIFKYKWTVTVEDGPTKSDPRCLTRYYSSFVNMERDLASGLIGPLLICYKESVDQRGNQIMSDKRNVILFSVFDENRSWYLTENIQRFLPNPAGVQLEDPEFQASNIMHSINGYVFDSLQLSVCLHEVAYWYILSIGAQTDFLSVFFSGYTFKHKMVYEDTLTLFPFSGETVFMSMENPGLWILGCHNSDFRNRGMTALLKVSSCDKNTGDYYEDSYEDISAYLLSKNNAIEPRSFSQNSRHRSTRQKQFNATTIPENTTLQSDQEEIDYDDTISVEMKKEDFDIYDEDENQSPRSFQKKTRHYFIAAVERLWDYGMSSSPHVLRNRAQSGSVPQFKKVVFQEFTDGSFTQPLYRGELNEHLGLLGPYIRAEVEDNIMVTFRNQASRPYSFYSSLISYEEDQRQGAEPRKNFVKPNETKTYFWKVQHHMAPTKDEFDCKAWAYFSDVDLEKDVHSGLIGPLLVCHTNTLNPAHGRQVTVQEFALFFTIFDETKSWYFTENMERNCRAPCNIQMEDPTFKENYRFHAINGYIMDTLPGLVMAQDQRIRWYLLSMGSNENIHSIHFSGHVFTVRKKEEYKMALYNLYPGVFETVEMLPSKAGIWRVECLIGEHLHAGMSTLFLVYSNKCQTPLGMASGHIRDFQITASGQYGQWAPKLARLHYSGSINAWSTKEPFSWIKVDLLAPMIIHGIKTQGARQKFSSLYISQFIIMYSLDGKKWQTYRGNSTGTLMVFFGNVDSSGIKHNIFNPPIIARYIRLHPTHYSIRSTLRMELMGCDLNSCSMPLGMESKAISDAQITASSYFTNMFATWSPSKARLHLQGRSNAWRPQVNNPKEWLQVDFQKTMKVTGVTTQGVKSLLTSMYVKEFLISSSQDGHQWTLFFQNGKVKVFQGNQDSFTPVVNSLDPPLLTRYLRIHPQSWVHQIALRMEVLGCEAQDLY
Experiment: SPR, anti-His capture
Protocol: Binding kinetics were investigated by surface plasmon resonance using a Biacore 4000 biosensor at 37° C. Each mutant was captured from cell culture medium to a density of 40-150 RU on a CM-5 sensor chip pre-immobilised with anti-His antibody (14,000 RU). In an initial screening study, FVIII was injected over the captured mutants for 5 minutes at 1 nM and dissociation monitored for 5 minutes.
All sensorgrams were double referenced by subtraction of signals from a reference spot (containing only immobilised anti His antibody) and from a blank injection. Binding kinetics were determined by fitting the double referenced sensorgrams to a 1:1 kinetic model.

B1: Hu-vWF[764-1270]-8His S764P-L765P (other)
chain: PPSCRPPMVKLVCPADNLRAEGLECTKTCQNYDLECMSMGCVSGCLCPPGMVRHENRCVALERCPCFHQGKEYAPGETVKIGCNTCVCRDRKWNCTDHVCDATCSTIGMAHYLTFDGLKYLFPGECQYVLVQDYCGSNPGTFRILVGNKGCSHPSVKCKKRVTILVEGGEIELFDGEVNVKRPMKDETHFEVVESGRYIILLLGKALSVVWDRHLSISVVLKQTYQEKVCGLCGNFDGIQNNDLTSSNLQVEEDPVDFGNSWKVSSQCADTRKVPLDSSPATCHNNIMKQTMVDSSCRILTSDVFQDCNKLVDPEPYLDVCIYDTCSCESIGDCACFCDTIAAYAHVCAQHGKVVTWRTATLCPQSCEERNLRENGYECEWRYNSCAPACQVTCQHPEPLACPVQCVEGCHAHCPPGKILDELLQTCVDPEDCPVCEVAGRRFASGKKVTLNPSDPEHCQICHCDVVNLTCEACQEPGGLVVPPTDAPVSPTTLYVEDISEPPLHDFHHHHHHHH
  Kd: 23.8 pM
  koff: 0.000242 s⁻¹
  kon: 1.02e+07 M⁻¹ s⁻¹

B2: Hu-vWF[764-1270]-8His S764P-S766N (other)
chain: B1 chain with P2L, S3N
  Kd: 10.4 pM
  koff: 9.14e-05 s⁻¹
  kon: 8.82e+06 M⁻¹ s⁻¹

B3: Hu-vWF[764-1270]-8His S766Y-K773H (other)
chain: B1 chain with P1S, P2L, S3Y, K10H
  Kd: 114 pM
  koff: 0.0062 s⁻¹
  kon: 5.47e+07 M⁻¹ s⁻¹

B4: Hu-vWF[764-1270]-8His S764P-S766P (other)
chain: B1 chain with P2L, S3P
  Kd: 84.8 pM
  koff: 0.00217 s⁻¹
  kon: 2.56e+07 M⁻¹ s⁻¹

B5: Hu-vWF[764-1270]-8His S764P-S766L (other)
chain: B1 chain with P2L, S3L
  Kd: 6.06 pM
  koff: 8.74e-05 s⁻¹
  kon: 1.44e+07 M⁻¹ s⁻¹

B6: Hu-vWF[764-1270]-8His S764P-S766A (other)
chain: B1 chain with P2L, S3A
  Kd: 12.3 pM
  koff: 0.000166 s⁻¹
  kon: 1.35e+07 M⁻¹ s⁻¹

B7: Hu-vWF[764-1270]-8His S766Y-K773G (other)
chain: B1 chain with P1S, P2L, S3Y, K10G
  Kd: 32.7 pM
  koff: 0.00197 s⁻¹
  kon: 6.02e+07 M⁻¹ s⁻¹

B8: Hu-vWF[764-1270]-8His S764P-S766V (other)
chain: B1 chain with P2L, S3V
  Kd: 95.6 pM
  koff: 7.82e-05 s⁻¹
  kon: 819000 M⁻¹ s⁻¹

B9: Hu-vWF[764-1270]-8His S766Y-K773L (other)
chain: B1 chain with P1S, P2L, S3Y, K10L
  Kd: 19.2 pM
  koff: 0.000345 s⁻¹
  kon: 1.79e+07 M⁻¹ s⁻¹

B10: Hu-vWF[764-1270]-8His S764P-S766H (other)
chain: B1 chain with P2L, S3H
  Kd: 6.76 pM
  koff: 9.47e-05 s⁻¹
  kon: 1.4e+07 M⁻¹ s⁻¹

B11: Hu-vWF[764-1270]-8His S764P-S766F (other)
chain: B1 chain with P2L, S3F
  Kd: 7.41 pM
  koff: 0.0001 s⁻¹
  kon: 1.35e+07 M⁻¹ s⁻¹

B12: Hu-vWF[764-1270]-8His S764P-S766D (other)
chain: B1 chain with P2L, S3D
  Kd: 12.7 pM
  koff: 0.00012 s⁻¹
  kon: 9.41e+06 M⁻¹ s⁻¹

B13: Hu-vWF[764-1270]-8His S766Y-K773D (other)
chain: B1 chain with P1S, P2L, S3Y, K10D
  Kd: 343 pM
  koff: 0.0427 s⁻¹
  kon: 1.25e+08 M⁻¹ s⁻¹

B14: Hu-vWF[764-1270]-8His S766Y-K773E (other)
chain: B1 chain with P1S, P2L, S3Y, K10E
  Kd: 261 pM
  koff: 0.00481 s⁻¹
  kon: 1.84e+07 M⁻¹ s⁻¹

B15: Hu-vWF[764-1270]-8His S764P-L765V (other)
chain: B1 chain with P2V
  Kd: 355 pM
  koff: 0.0022 s⁻¹
  kon: 6.19e+06 M⁻¹ s⁻¹

B16: Hu-vWF[764-1270]-8His S764P-S766M (other)
chain: B1 chain with P2L, S3M
  Kd: 4.88 pM
  koff: 5.76e-05 s⁻¹
  kon: 1.18e+07 M⁻¹ s⁻¹

B17: Hu-vWF[764-1270]-8His S766Y-K773M (other)
chain: B1 chain with P1S, P2L, S3Y, K10M
  Kd: 33.5 pM
  koff: 0.000659 s⁻¹
  kon: 1.97e+07 M⁻¹ s⁻¹

B18: Hu-vWF[764-1270]-8His S764P-S766G (other)
chain: B1 chain with P2L, S3G
  Kd: 21.7 pM
  koff: 0.000388 s⁻¹
  kon: 1.79e+07 M⁻¹ s⁻¹

B19: Hu-vWF[764-1270]-8His S764P-S766T (other)
chain: B1 chain with P2L, S3T
  Kd: 11.6 pM
  koff: 0.000105 s⁻¹
  kon: 9.01e+06 M⁻¹ s⁻¹

B20: Hu-vWF[764-1270]-8His S766Y-K773N (other)
chain: B1 chain with P1S, P2L, S3Y, K10N
  Kd: 98.4 pM
  koff: 0.00507 s⁻¹
  kon: 5.15e+07 M⁻¹ s⁻¹

B21: Hu-vWF[764-1270]-8His S764P-S766Q (other)
chain: B1 chain with P2L, S3Q
  Kd: 10.2 pM
  koff: 0.000123 s⁻¹
  kon: 1.2e+07 M⁻¹ s⁻¹

B22: Hu-vWF[764-1270]-8His S764P-L765W (other)
chain: B1 chain with P2W
  Kd: 645 pM
  koff: 0.00514 s⁻¹
  kon: 7.97e+06 M⁻¹ s⁻¹

B23: Hu-vWF[764-1270]-8His S764P-L765Y (other)
chain: B1 chain with P2Y
  Kd: 355 pM
  koff: 0.0022 s⁻¹
  kon: 6.19e+06 M⁻¹ s⁻¹

B24: Hu-vWF[764-1270]-8His S766Y-K773I (other)
chain: B1 chain with P1S, P2L, S3Y, K10I
  Kd: 71 pM
  koff: 0.000569 s⁻¹
  kon: 8.02e+06 M⁻¹ s⁻¹

B25: Hu-vWF[764-1270]-8His S764P-L765Q (other)
chain: B1 chain with P2Q
  Kd: 880 pM
  koff: 0.00714 s⁻¹
  kon: 8.12e+06 M⁻¹ s⁻¹

B26: Hu-vWF[764-1270]-8His S764P-S766K (other)
chain: B1 chain with P2L, S3K
  Kd: 14 pM
  koff: 0.000301 s⁻¹
  kon: 2.15e+07 M⁻¹ s⁻¹

B27: Hu-vWF[764-1270]-8His S764P-S766R (other)
chain: B1 chain with P2L, S3R
  Kd: 9.21 pM
  koff: 0.000119 s⁻¹
  kon: 1.29e+07 M⁻¹ s⁻¹

B28: Hu-vWF[764-1270]-8His S766Y-K773A (other)
chain: B1 chain with P1S, P2L, S3Y, K10A
  Kd: 65.1 pM
  koff: 0.00122 s⁻¹
  kon: 1.88e+07 M⁻¹ s⁻¹

B29: Hu-vWF[764-1270]-8His S764P-S766E (other)
chain: B1 chain with P2L, S3E
  Kd: 16 pM
  koff: 0.000128 s⁻¹
  kon: 8.04e+06 M⁻¹ s⁻¹

B30: Hu-vWF[764-1270]-8His S764P-S766W (other)
chain: B1 chain with P2L, S3W
  Kd: 7.27 pM
  koff: 8e-05 s⁻¹
  kon: 1.1e+07 M⁻¹ s⁻¹

B31: Hu-vWF[764-1270]-8His S766Y-K773F (other)
chain: B1 chain with P1S, P2L, S3Y, K10F
  Kd: 158 pM
  koff: 0.00324 s⁻¹
  kon: 2.05e+07 M⁻¹ s⁻¹

B32: Hu-vWF[764-1270]-8His S764P-S766I (other)
chain: B1 chain with P2L, S3I
  Kd: 5.23 pM
  fold decrease in off-rate against wild type vWF: 22 fold
  fold increase in affinity against wild type vWF: 30 fold
  koff: 5.14e-05 s⁻¹
  kon: 9.84e+06 M⁻¹ s⁻¹

B33: Hu-vWF[764-1270]-8His S764P-L765T (other)
chain: B1 chain with P2T
  Kd: 634 pM
  koff: 0.00882 s⁻¹
  kon: 1.39e+07 M⁻¹ s⁻¹
